Results taken from the DeepSol protein solubility set.

Assay: soluble on expression in E. coli; label from the status in PepcDB or PDB records
With “MGSDKIHHHHHHMKKIYKSLTVSAIVATVSLSALPQSLAITHESQPTKQQRTVLFDRSHGQTAGAADWVSDGAFSDYADSIQKQGYDVKAIDGHSNITEASLKSSKIFVIPEANIPFKESEQAAIVNYVKQGGNVVFISDHYNADRNLNRIDSSEAMNGYRRGAYEDMSKGMNAEEKSSTAMQGVKSSDWLSTNFGVRFRYNALGDLNTSNIVSSKESFGITEGVKSVSMHAGSTLAITNPEKAKGIVYTPEQLPAKSKWSHAVDQGIYNGGGKAEGPYVAISKVGKGKAAFIGDSSLVEDSSPKYVREDNGEKKKTYDGFKEQDNGKLLNNITAWMSKDSDGKSLKASGLTLDTKTKLLDFERPERSTEPEKEPWSQPPSGYKWYDPTTFKAGSYGSEKGADPQPNTPDDHTPPNQNVKISFDIPQNVSVNEPFEVTIHLKGFEANQTLENLRVGIYKEGGRQIGQFSSKDNDYNPPGYSTLPTVKADENGNATIKINAKVLESMEGSKIRLKLGDKTLITTDFK” the “soluble on expression in E. coli” value was “not soluble”. With “MGSDKIHHHHHHMKKLVATAPRVAALVEYEDRAILANEVKIRVRFGAPKHGTEVVDFRAASPFIDEDFNGEWQMFTPRPADAPRGIEFGKFQLGNMVVGDIIECGSDVTDYAVGDSVCGYGPLSETVIINAVNNYKLRKMPQGSSWKNAVCYDPAQFAMSGVRDANVRVGDFVVVVGLGAIGQIAIQLAKRAGASVVIGVDPIAHRCDIARRHGADFCLNPIGTDVGKEIKTLTGKQGADVIIETSGYADALQSALRGLAYGGTISYVAFAKPFAEGFNLGREAHFNNAKIVFSRACSEPNPDYPRWSRKRIEETCWELLMNGYLNCEDLIDPVVTFANSPESYMQYVDQHPEQSIKMGVTF” the “soluble on expression in E. coli” value was “not soluble”. For “MGSDKIHHHHHHMKKPQSNFPHLQLKDGILKDQLYHAFREAILDGRLHPRMKLPSSRALSETMQISRNSVLQGFERLIDEGYLLTKPGSGTYVSDTIPDELIDIPNSSRESAQAFDSNVDINPQLIEMARLKAKGNTDHSHSMLNIGVGCVDLFPHQLWGRLLGRVWRQSRKTLGKSNHSAGYLPLREAISDYARSTRGLNCTPEQIIIVNGTQQAINLTAQVLLQQGDEVWLDEPGYDGALGAFLSQNMRVRPVSVDVEGTNIADAIQRYPAVKLAFTAPSHQFPLGGMLSLPRRLALLDWAAEQSKWILEDDYNGEFRYSARPIQALQGLDKYQRVIYAGTFSKMLLPELRLGFLVVPSKLVQAFQLAKHYADTHTAHLEQATLALFITEGHYARHVRRVRKACLARQTALIAAIEQYLPDKLSVQTSDSGIHLVCWLKGDLTEEKVINKCRQLSLGAQPLSRYCQAPYPRQAILLGYAAHTPDELRESIKKLAQIL”, the “soluble on expression in E. coli” value was “not soluble”. For “MGSDKIHHHHHHMKKPSQFDAIVVGAGPSGNAAAYTMARAGLKVLQIERGEYPGSKNVQGAILYAKALEEIIPDFRDDAPLERHIIEQRIWMLDDTSFVGTHMRSEEYNKPPYNRYTIIRAQFDKWFSSKVREAGALLICETTVKQLIMDGDQVVGVQCDREHGDVYADVVVLADGVNSTLARKAGFHGEIEAGNVALAVKEILFMPEETIRQRFNIGEDDGVVIEMVGRITDGMTGTGFLYTNKESLTIGVGCMLGDFKKNPNRTSPYVLLEKMKQHPSIAPLIAGGEMKEYCAHLIPEGGFHAIPRVYGNGWMIVGDSGGFVNAAHREGSNLAMTTGRLAAETVIHAKAAGLGYRAATLKAYKAALDQSFVMKDLHKYRDMPAVLHQNPQFFTTYPDLVARAARTMLTVDGKDKKSKEREIFSSFRKARSLAGMVGDAYKLLRAFR”, the “soluble on expression in E. coli” value was “not soluble”. In the case of “MGSDKIHHHHHHMKKSKHISQSELESYLWGAATLLRGYIDAGDYKQFIFPLLFYKRLCDVYDEELADALEESGGDQEYAALPEQHRFQIPEDAHWKATRTKVKNVGKAIQDALRAIETANPDTLYGVFGDAQWTNKDRLPDRMLRELIEHFSSQTLSLSNCPEDELGVGYEFLIKKFADDSGHTAAEFYTNRTVVHLMTEMLEPKPGESIYDPTCGSAGMLLSAVAHLKRQNKEWRNLRLFGQERNLLTSAIGRMNLFLHGIEDFRIVRGDTLANPAFVEGDRLMQFDVVLANPPYSIKQWDRDAWSADPWGRNIYGTPPQGRADYAFWQHIIKSMKAKSGRCAILFPHGVLFRNEESAMREKLVAHDVVECVLGLGPNLFYNSPMEACVVICRMNKPKERRNKVLFINAVNEVTRERAQSFLTDDHIQRIVAAYQAFGDEDGFARVVGNDEIREKASNLSIPLYVRAENGNGNGNGSTETVSLKQAIANWQESSMALRESMDGLLSSLEGGLHGS”, the “soluble on expression in E. coli” value is reported as “not soluble”. In the case of “MGSDKIHHHHHHMKKTYLFSPGPVMVTDKVRNSLLHYDICHRGNEFMNLFKDTQQKINKLYNATSNYYSLIVSGSGTSVNECVLSSIFDKEDAVLLVSNGVFGERLEEILSTYNVKTYKPNFEWAEYPDLDILEKYIIENSDIKVIAMVFHETSSGMINPVPELGKLAKKYNKIFFVDAISASAGEYIDVEEFNIDIITGVGGKALGAFPGSAYLCAKESILQNIKENQCKNVYLNLYKHYKVAKSSSQTPNTPNVTLIFALNEALTEFLEDDSKIERYKECSAILRNGMEELGLTFLLPDKYMSNTVTSVFLPKEINVNEFILGLERESGYVVYPGKGKFLDANIFQVANMGEIYPEDCYKFLDILKSKLEIKKVI”, the “soluble on expression in E. coli” value is reported as “not soluble”. In the case of “MGSDKIHHHHHHMKLITVSGPPSSGKTSLIIKTVESLKAQNIKVGIVKFDCLYTDDDILYEKAGILVKKGLSGSVCPDHFFASNIEEVVQWGKTNNLDLLITESAGLCNRCSPYLKDIKAVCVIDNLSGINTPKKIGPMLKLADIVVITKGDIVSQAEREVFASRVQTVNPKAAIIHINGLTGQGTYEFGSLIMDKNEEIDTVIERKLRFPLPSAVCSYCLGETRIGNNYQLGNIRKINFEEQ”, the “soluble on expression in E. coli” value is reported as “not soluble”. In the case of “MGSDKIHHHHHHMKLLYFKEHLSCINYQINVNTGFVYYNLEKDSVSKIDNSASPCILFLLDGEVSIDSGEYQNVHIEKDKMVLIPQHVDNKIEVIYDAKCLLLFWNKDIRVCDKVYMNSLSSYKERKKEMCVLPIRDPLQAVLNSVVAYLYAKMQCKHMHLIKQQEVLLVLRGYYTKKELFTFFSSILGNTGHFEDFVMNNYRKVKSVKEFAGLYCTSERSFNRKFQNCFKESPYQWMQKKKAELIREKISESDTPFQEIAMDFDFNSQAHFTSYCKRLFGMTPSKLRTESKKVAPDLEY”, the “soluble on expression in E. coli” value is reported as “not soluble”. For “MGSDKIHHHHHHMKLSYVTDSLGHLPFEDMLNFAAKLGIDTLEMTTGGWSPAPHLNLDELLQSSEKRKEFSQALEKRNMTLCALNCSGNPLDPGELGKSHRDITDKTMELAGLLGVKKVIMMSGLPAGGPDDKVPNWITYTVSWPPVLKDILNYQWEDVAIPYWKKLVKKAEACGVGKIALENFSSQLVYNPETLFRLRNAVGPMVGLNLDPSHLLWMGADPIIAARELGSAIHHVHGKDVRIERYLSAVNGLLETKEVTDPANRAWNYVAVGCGQDLQWWKEFFSVVKMMGYEGEVSLEMEDLTMSPEAGIRTSVEALKQTISQ”, the “soluble on expression in E. coli” value was “not soluble”. For “MGSDKIHHHHHHMKMNWTGAAHQLNKQGKAYVIATIVGVTGSTPRNSGTKMVITHDDIFDTIGGGHLEHKVIKHAHQLLMAGDDCQQLEHFQLGAQLGQCCGGNASVLFESFSASGVNIMLFGAGHVGKALMPILAGLPCSITWVDSRADQFPDDAGNYHNVTTLVSENPAEEVALMPTNSYYIVMTHNHQLDFEISHNTLKRADFAYLGLIASDTKWRRFQQRFQHRDIAKSLVEKMNCPIGLPQVQGKLPMEVAVSVAGEIIQLYQAELASQALANPSANKQKDAKPQSTKQGIAWQELKSLMTEEVS”, the “soluble on expression in E. coli” value was “not soluble”. For “MGSDKIHHHHHHMKNFVLDTNVLLYDPQAIFKFEENNIIIPITVIEEVDRFKKDMNETGRNARQVSRYLDDMRKIGSLSSGITLETGGMLRVEMYEEKIMKRLPPELREERGDNRILAVAVKILEENGGAPVVFVTKDTNLRIKADAIGLKAEDYESDKVDIEELYPGFTEIDVAADTVDRFHGQGWVELPGQTFFPNQCVTLRDEANPSHTALGKYRVGDGKITPLIKTGKEGVWSIFPRNREQAFAFDLLLDDSIKLVTLVGKAGTGKTLLAIAAGLHKTAEENVFNRLLVSRPVFPMGRDLGFLPGDIEEKLAPWMQPIFDNVELLLSGHEAEKRHSKGYKELMAMGIMEIEPLTYIRGRSIPNQFMIVDEAQNLTPHEIKTIITRAGEGTKIVLTGDPYQIDNPYVDASSNGLTYVVERFKEQAIAGHVTMTKGERSDLAELAANLL”, the “soluble on expression in E. coli” value was “not soluble”. In the case of “MGSDKIHHHHHHMKPDLSSHLVLGERPDGRTLITARWVLAWRDGGHALIPDGEIVVDRNEVLYAGPRFEGDVARRIDFGTALVSPGLIDLDALSDLDTYLLVHDNQPGWAKGRIWPRSYVESGPYEMYSAEELAFQKRFAFGLLLLNGITTAAPIASLYYRQWAETVAEFEAAADAAGDLGLRVFLSPAYRSGGMILEGPGRIEPAFDEPRGLQGLADAIDFIERNHGRHNGLVNGMLAPDRIETCTLHLLQRTMAAARDLDCRVRIHMAQGNLELETMRRLHGVSAPQWLADHGLMSERLIAPHGTYASPQDLQLYAQHGVSIAHSPLVSARMGSILNSFAACRSLGINIGMATDTAPPDMLMNLLVGLIACRIGEKTSDAVFSKDLFDAATLGGAKALGRRDLGRLAAGAKADIAVFRLDDVHMTPSVDPVTTLVVGGSGKVTQAVFVDGRLSMLDGKVAGIDMIAAREQAQQQYDGLIAKYPDRSWRHPPVGKIFSPSYPVWKIQ”, the “soluble on expression in E. coli” value is reported as “not soluble”. In the case of “MGSDKIHHHHHHMKQILFMDTTLRDGEQSPGVNLNEQEKLQIARQLERLGIHVMEAGFAAASEGDFQSVKRIANTIQNATVMSLARAKESDIRRAYEAVKGAVSPRLHVFLATSDIHMKYKLCMSKEDVLDSIHRSVTLGKSLFPTVQFSAEDATRTARDFLAEAVEVAIRAGANVINIPDTVGYTNPEEYYSLFKYLQESVPSYEKAIFSCHCHDDLGMAVANSLAAVEGGALQVEGTINGIGERAGNAALEEVAVALHIRKDFYQAEPSMTLKEIKATSTLVSRLTGMVVPKNKAIVGANAFAHESGIHQDGVLKEVTTYEIIEPELVGESQNLFVLGKHSGRHAFTEKMKELGYEFTTEERDAVFEAFKKLADRKKEITEEDLRALMLGEAAFAAQQYNITQLQVHFVSNSTQCATVVLKDEEGNVFEDAATGSGSIEAIYNAIQRILGLECELADYRIQSITQGQDALAHVHVELKEGTHQVSGFGVAQDVLEASARAYVHAAGKLKSFIQLVK”, the “soluble on expression in E. coli” value is reported as “not soluble”. In the case of “MGSDKIHHHHHHMKQLTMPLTALALFTLGGCVTNSDLDVVRRDLDELKNRQFQVEKEVGGVRTEATARIESSFKDLDTERAGVRKGLADLQAAMDGIKVDMQVLAGKVDDVGLAAKKPGDDLILLREDLERRLTAFDQRLAKAETGIEALQKKVAEQAPSPKETEKPTPEALYQKGLDAYRAGNYGVARESFTRFLEQHPKHELAANARYWTGETYYSEKKFEQAILEFQEVIKNYPGKEKVPAAMLKQAAAFSEIGDAKSARFVLRKLADDYPSSEEAKRAKDRLKELK”, the “soluble on expression in E. coli” value is reported as “not soluble”. For “MGSDKIHHHHHHMKQPLAHRMRPTNIQEIIGQQHLVGEGKILWRMVQANHFQSMILYGPPGTGKTSIASAIAGSTGTPFRLLNAVTHNKKDMEVVVQEAKMHRHLVLILDEVHRLDKAKQDFLLPHLESGLLTLIGATTSNPFHAINSAIRSRCQIFELHALTEDDLLIGLKRALEDKEKGLGEYDVTVTPEALHHFANASGGDMRSAYNALELAVLSSFTTDDKAAEITLEIAEECLQKKSFVHDKGGDAHYDVLSAFQKSVRGSDVNAALHYLARLIEAGDLQSIGRRLLIMAYEDIGLASPQAGPRTLAAIESAERVGFPEARIPLANAVIELCLSPKSNSAYKALDAALHDLRNGQTGDIPSHLKDSHYKGAEALGRGIGYLYPHDHPNGWVQQQYLPDKIKNKQYYKPKMTGKFEQALSTVYERLQSSNKTKNKG”, the “soluble on expression in E. coli” value was “not soluble”.
